Experimental data: patent US20250002563A1 (UNIVERSITY OF PITTSBURGH OF THE COMMONWEALTH SYSTEM OF …, published 2025)

How the values were obtained:
[1] = target: RBDSARS-CoV-2 (SARS-CoV-2 S protein residues 319-539, C-terminal His-tag) (SARS-CoV-2, UniProt P0DTC2 319-539); experiment: ELISA
[2] = target: RBDSARS-CoV (SARS-CoV S protein residues 318-510, C-terminal His-tag) (SARS-CoV, UniProt P59594 318-510); experiment: ELISA

Binder | IC50 [1] | IC50 [2]
5p-168 (VHH) VHH: DVQLVESGGGLVQAGASLRLSCVVSGVTFSTYGMAWFRQAPEKQRTFVATITREDTTFYADSVKGRFTISRDNAKNTVYLQMNSLKLEDTAVYYCAVRRDSSWGYSRDLFEYDDWGQGTQVTVSS | < 10 nM | < 10 nM
5p-179 (VHH, class IV psNb) VHH: HVQLVESGGGLVQAGGSLRLSCAASGTISTLNAMGWYRQAPGKQRELLASISNLGTTYHADSVAGRFTISRGSAKNTVNLQMNSLKPDDTAVYYCNTRVLEGGTQIRDYWGQGTQVTVSS | < 10 nM | > 8000 nM
5p-10 (VHH) VHH: QVQLVESGGGLVQAGGSLRLSCAASGRTFSSSAMGWFRQAPGKDREFVAAISPSSTNTGYTDSVKGRFTISRDNTKNTVDLQMNNLKPEDTAIYYCAADANSLRYGYSQNQGRYEYWGQGTQVTVSS | < 10 nM | 10 to 100 nM
5p-99 (VHH) VHH: HVQLVESGGGSVQPGGSLRLSCAASGLTLDHYAVGWFRQAPGKEREGVSCISSSTGSAYYADSVKGRFTISRDNAKNMMYLEMNSLKPEDTAVYYCATDLLRRMLPGSSWWCLNQNDFGSWGQGTQVTVSS | < 10 nM | 1000 to 8000 nM
5p-16 (VHH) VHH: DVQLVESGGGLVQAGGSLRLSCLASGRTFSNYAMAWFRQSPGKEREFVAVITSGRSTDYADSVKGRFTISRDNAKNTVYLQMNSLKPEDTAVYYCAADQAPLRFSYSLSRDKYDYWGQGTQVTVSS | < 10 nM | 10 to 100 nM
4P-3 (VHH) VHH: DVQLVESGGGLVQAGDSLRLSCAASGRTFGNYVLDWFRQAPGKEREFVASITQTGFGTYYADAVKGRFTISRDNAKNTMYLQMNSLKPEDTAVYYCAADFTAQNGGIRNPTYWGQGTQVTVSS | 10 to 100 nM | 1000 to 8000 nM
4P-5 (VHH) VHH: DVQLVESGGGLVQAGGSLRLSCAASGRTFGNYVLDWFRQAPGKEREFVASITQTGFGTYYADAVKGRFTISRDNAKNTMYLQMNSLKPEDTAVYYCAADFTVQNGGIRNPTYWGQGTQVTVSS | 10 to 100 nM | 100 to 1000 nM
4P-4 (VHH) VHH: DVQLVESGGGLVQAGDSLRLSCAASGRTFGNYVLDWFRQAPGKEREFVASITQTGFGTYYADAVKGRFTISRDNAKNTMYLQMNSLKPEDTAVYYCAADFTAQNRGIRIPRYWGQGTQVTVSS | 10 to 100 nM | 100 to 1000 nM
5p-78 (VHH) VHH: HVQLVESGGGLVQAGGSLRLSCAAAARFSTSAMGWFRQAPGKEREFVAAVSWSNTNIHYADTVKGRFTISADTAKETVYLQMNSLKPDDTAVYYCAQGGWGLTQPIIVDYWGKGTQVTVSS | < 10 nM | < 10 nM
5p-126 (VHH) VHH: QVQLVESGGGLVQAGGSLRLSCAAAARFSTSAMGWFRQAPGKEREFVAAVSWSNTNTHYADTVKGRFTISADTAKETVYLQMNSLKPEDTAVYYCAQGGWGLTQPIIVDYWGKGTQVTVSS | < 10 nM | < 10 nM
5p-4 (VHH) VHH: QVQLVESGGGLVQAGASLRLSCAASGRTFTNSHMGWFRQAPGKERDFVAVISRSGGSTLYADSVKGRFTISRDNAKNTVYLQMNTMKPEDTAVYYCAGARTAGLTSNPSLYDYWGQGTQVTVSS | < 10 nM | 10 to 100 nM
5p-93 (VHH, class III psNb) VHH: QVQLVESGGGLVQPGGSLRLSCAASGFTFNRYAMSWVRQAPGKGREWVSGIYSDGSETYYTESVKGRFTISRDNAKNMLYLQMNSLKPEDTALYYCAKDENAHEDYFNSGFDRKYDYWGQGTQVTVSS | < 10 nM | > 8000 nM
5p-6 (VHH) VHH: DVQLVESGGGLVQAGGSLRLSCAASGSTFSGNAIGWYRQAPGKQRELVATINAPGSTDYAESVKGRFTISRDNAKNTVFLQMNSLKPEDTAVYYCNVCKFLLSVLCHPGQDYWGQGTQVTVSS | < 10 nM | 10 to 100 nM
5p-82 (VHH) VHH: HVQLVESGGGLVQAGESLRLSCVDSKRTGSRWPMGWFRQAPGKEREFVASISWTGSRTYYADSVKGRFTISRDNAENTVFLQMNSLKPEDTAVYYCAAAHARVYGANWSSSNRNDYDAWGQGTQVTVSS | 10 to 100 nM | 10 to 100 nM
5p-89 (VHH) VHH: EVQLVESGGGLVQAGGSLRLSCEDSKRTGSRWPVGWFRQAPGKEREFVASISWTGSRTYYADSVKGRFTISRDNAENTVFLKMNSLKPEDTAVYYCAAAQTRVYGANWSSSNRDDYDAWGQGTQVTVSS | 10 to 100 nM | 10 to 100 nM
4P-84 (VHH) VHH: HVQLVESGGGLVQAGGSLRLSCAVSGRTVSTYGMGWFRQAPGKERDFVATITRSGGTTLYADSVKGRFTISRDNAKNTVYLQMNSLKIEDTAVYYCAVRRDSSFGYSRDSFEYDDWGQGTQVTVSS | < 10 nM | < 10 nM
4P-86 (VHH) VHH: DVQLVESGGGLVQAGGSLRLSCAVSGRTVSTYGMAWFRQAPGKEREFVATITRSEGTTFYADSVKGRFTISRDNAKNTVYLQMNSLKIEDTAVYYCAVRRDSSWGYSRDSFEYDDWGQGTQVTVSS | < 10 nM | < 10 nM
5p-169 (VHH) VHH: DVQLVESGGGLVQAGGSLRLSCLVSGLTFSTYGMGWFRQAPGKEREFVAQITRSGSPTLYADSVKGRFTISRDNAKNTMYLQMNSLKIEDTAVYYCAVRRDSSWGYSRDSFEYDYWGQGTQVTVSS | < 10 nM | < 10 nM
5p-98 (VHH) VHH: QVQLVESGGGLVQPGGSLRLSCAASGRTLSNYAMGWFRQAPGKEREFVAVIRQRTGMRSYTYYADSVEGRFTISGDGAKMTVSLQMNSLKPEDTAVYYCAIDLIDDYKSTYYYSTQPSSYDYWGQGTQVTVSS | < 10 nM | 10 to 100 nM
5p-74 (VHH) VHH: DVQLVESGGGLVQAGGSLRLSCAASGGTSRRYTMGWFRQAPGKEREFVSAISNTGATISGANSMEGRFTISRDNAKNTVYLQMNSLKPEDTAVYYCAATSRGWSIGMTYDYWGQGTQVTVSS | < 10 nM | < 10 nM
5p-180 (VHH) VHH: QVQLVESGGGLVQAGGSLRLSCVASGTISTLNAMGWYRQAPGKQRELLTSISNLGTTYSADSVKGRFTISRGNAKNTVYLQMDSLKPDDTAVYYCNTRVLEGTEYRDYWGQGTQVTVSS | < 10 nM | > 8000 nM
5p-162 (VHH) VHH: DVQLVESGGGFVQAGGSLRLSCADSGLTRSVWPMGWFRQAPGKEREFVAGIAWSGERQSYADFVKGRFTVSRDNARNTVYLQMNSLKPEDTAVYYCAAPTSGVFGRTYAPTATSSYDSWGQGTQVTVSS | 10 to 100 nM | 10 to 100 nM
4P-10 (VHH) VHH: HVQLVESGGGLVQAGDSLRLSCTASGRTFSAYGMGWFRQAPGKEREFVAGIARSGSEYYGDSVKGRFTISRDNAKNTVYLQMASLKAEDTGVYYCAADPTILYHAISQRTQNYRYWGPGTQVTVSS | < 10 nM | 100 to 1000 nM
4P-9 (VHH) VHH: QVQLVESGGGLVQAGDSLRLSCTASGRTFSAYGMGWFRQAPGKEREFVAGIARSGSEYYGDSVKGRFTISRDNAKNTVYLQMASLKAEDTGVYYCAADPTILYHAISQRTQNYRHWGPGTQVTVSS | < 10 nM | 100 to 1000 nM
5p-24 (VHH) VHH: DVQLVESGGGLVQAGDSLRLSCTASGLTFSAYGMGWFRQAPGKEREFVAGIARSGSEFYGDSVKGRFTISRDNAKNTVYLQVNSLRPEDTALYYCAADRTILYHAISQRTQNYQYWGPGTQVTVSS | < 10 nM | < 10 nM
5p-174 (VHH) VHH: HVQLVESGGGLVQTGASLRLSCKASGRTFSTYTISWFRQAPGKEREFVGGVATSGGTTYYGDSVQGRFTISRDNAKNEVYLQMNSVKPEDTAVYICAARSVIQDTVVISNPIHFEYWGQGTQVTVSS | < 10 nM | < 10 nM
5p-156 (VHH) VHH: EVQLVESGGGLVQAGDSLRLSCVASGRTFTTSIMGWFRQAPGKEREFVAAIARNGVSTFYADSVKGRFTASRDNAKNTLYLQMNSLKPEDTGVYYCAAKPRGVGLTDRISDYDYWGQGTQVTVSS | < 10 nM | 10 to 100 nM
5p-164 (VHH) VHH: DVQLVESGGGLVKTGDSLRLSCAVSGGTFGSYGMAWFRQAPGKEREIVASIGRTGRTTDYADSVKGRFSIARDNAKNTVYLQMNNLKPEDTAVYYCAARIFSLNYALIGRDTNINYWGQGTQVTVSS | < 10 nM | 10 to 100 nM
5p-176 (VHH) VHH: EVQLVESGGRLVQAGGSLRLSCAASGRTFSTYTMAWFRQAPGKEREFVAGIARNGDTAYYSDSVKGRFTISRDNAKNEVSLQMNSLKPEDTAVYTCAARSVVQLEVVLNNPIHFEYWGQGTQVTVSS | < 10 nM | < 10 nM
5p-171 (VHH) VHH: QVQLVESGGGLVQTGGSLRLSCAASGRTFSTYTMGWFRQAPGKEREFVAAITPTGYGTKSADSVKGRFIISRDNPKNTVYLQMNNLKPEDTAVYYCAARSGTITNQDQYDFHYWGQGTQVTVSS | < 10 nM | 10 to 100 nM
